# Experiment: soluble on expression in E. coli; label from the status in PepcDB or PDB records
row,Sequence,soluble on expression in E. coli
1,GPGSMLTRSLVCRASLQSRRRWEQRIVSVLSENKEEGVDAVAKRFQRVYKERRYTPVEEAFPPLAAAAAAPGLRSSAAKESVESVQQPANPLVLRVAFLGPQNAGKTSLVNSMALSNVGAVSNRYGSTKDWTKAVATVHETQLLLLDTPGIVPRDTQRVRRKFASGTAKAYDALFVSDLVVLALPVGVGFVEKEHKVVATEVVRRAAGRELPVVIAMTMMDKVQTPWHRELYFAMRTDLESLGLPTAATHEVSVKGGSGLVELKDCLCQYAKPGAWEHYRREATDLNPPQRVAELLRQTFMELLPHEIPHCMRHRVLGWTRKESGTTEVVVEAFFDRPAYMFTFYGKLEAICLRAQQVTERELAPQRFRFVFQAFIAPGGLSNS,not soluble
2,MAHHHHHHMRRTLALYKQGRSREPNVGRLLYGKRKNLVHHASEAKPSVTAVLAQTPTERLPVAVKHALQVKELHREQIATLLKQHRALRRFDRTEVIVQALRDAKQPLTSQHYCVLMAHANDERQTRRALQFWKDAVSEGKVNERLHGALMSTYRNAGNWRAAMRHCERMWRDQQVLDPLAAHAVMNACRRYGPWQMGLKVFSDAVQHGTKPNGVVYLELLRLIAQSKMPARWMYGLAILRALEASVEVTAGHYNAVLATMGGRNWEKGIELFHSMQVHNVQPSTETLNTVQQLHPHSVSHCIRCVAEAHALGMPITDTMYRNVLLNLFRMQLNNEATQFAEREYKLDCVDAGNPLTHTLSLSVAMVDALLSHPRPHDALLVYESFQDKIGDVVAAATRQLGTSGSLEQRWLVQGRVAVVDHNVLLSTTFESLIHHYDSVFVPFASVRLLVRRARENGHSVQGLHMKTTLRRIGLLLKREEWRMLRVLPYAHQLLAHTYLSEGGPASPEALKALREEAETQSLLPESPQTPTAVAKAVSAYGQALLRRLTPVGEAAEVAGAVRADQSGERGTEDAAKNLVIREAAGGAADTGASSLVSSKAWPAATAPFPMVLHSPRRITSVERVTAVAAMLKSLNPDAEVHVLSTNASQLAAVRHWNAVRVGVLLVPVHYPDQLRQMAPPALPISEGAVAAAMAAPGFRGPKPRL,not soluble
3,MGRAMGDSFTFIFNPAADKGRAADKTALIERSLAHFEVASLETTRFAGHAAEIARAAAGEGSTLIACGGDGTLNEVVNAVAGQPVKVGVLPVGSANDFLKTFNPSAKEHEVRIRGFAGATSRKVDLGKVEFGGGESRYFVNSIGIGFTGRIASTVKSVKWLRGELSYAWALVSVLLGYSAVKMHITLDTVEGKIELDEPVFAFSVSNGRVEGGKFRIAPEADPFDGLLDVCILKAVSKWRVPGYVLKYLKGSQIHDPNVIYCKARSVEVFLSVSEAMHMDGEVIEKVGGAIAITAEPLAVEMLYEP,not soluble
4,VPITPLLHESVARFAATGADITTRAEPDLFVSIDPDHLRRILTAVLDNAITHGDGEIAVTAHARDGAVDIGVRDHGPGFADHFLPVAFDRFTRADTARGGRGSGLGLAIVAALTTTHGGHANATNHPDGGAELRITLPTPRPPFHEELPRITSSDTKDPNREHDTSDQ,not soluble
5,MATEDAVREALATVNDPEINRPITELGMVKSVEIGADGAVAVAVYLTVSGCPMRDTITQRVSDAVSRVEGVTRVDVELDVMSDEQRKELATALRGGQTEREVPFAKPGSLTRVYAVASGKGGVGKSSVTVNLAASMAADGLKVGVVDADIYGHSVPRMLGADGRPTQVENMIMPPSAHGVKVISIGMFTPGNAPVVWRGPMLHRALQQFLADVYWGDLDVLLLDLPPGTGDIAISVAQLVPNAEILVVTTPQQAAAEVAERAGAIAVQTHQKIVGVVENMSGLPCPHCGEMVDVFGTGGGQTVADGLTRTTGASVPVLGAIPIDVRLREGGDEGKPVVLSDPDSPAGAALRSIAGKLGGRQRGLSGLSLGITPKNKFLEHHHHHH,soluble
6,GSMDALNSKEQQEFQKVVEQKQMKDFMRLYSNLVERCFTDCVNDFTTSKLTNKEQTCIMKCSEKFLKHSERVGQRFQEQNAALGQGLGR,soluble
7,MFISCIILINYSYIFGKNIRYLYEFKVIWKSNNSLILFFIEFDRNFMTIKFKLFKCRRLNILIELINIENYFRNGNILCFIFNIPSIPRNLLINVFLTSSNKVNISIQGLKLEHHHHHH,not soluble
8,MQQFATLSLASLLMLGTFTAFAAENGDAPASGWHIDDSATKGASGQQGMFDGVRLTEQQRQQMRDLMHQSRQDKPAFNTEDVKAMHKLVTAETFDEAAVRAQITRMMSVQIERQIQMTRVRNQMYNLLTPAQKEILELKHKQRMKEMQQQISMFNQMVAPSSGTTNHTETDSPELEHHHHHH,soluble
9,MSLKFTAIDFETANEKRNSPCSIGIVVVKDGHVVEKSHHLIRPKEMRFMPINIGIHGIRPAMVEKEPEFDKVWEKIKHYFDDTLVIAHNASFDISVLRKSAELYNIELPEFNYICTMKLARNFYKGIENAKLNTVNNFLGYEFRHHDALYDALACSNIMLSISKELKCKDITEISKLLGVTVGKVDSKGYKPSQTKGIAVRTSDRIYFSKKKSAFERLKADEFKNEVVVFTGRLDSMSRDEAMGLVRRLGGTAGSSVTKKTTILVTNMKNIKNLRREEMSNKLKRASDLNARGQNIKFLNEEEFLKIKEGHHHHHH,soluble
10,QECTKFKVSSCRECIESGPGCTWCQKLNFTGPGDPDSIRCDTRPQLLMRGCAADDIMDPTSLAETQEDHNGGQKQLSPQKVTLYLRPGQAAAFNVTFRRAKGY,soluble
11,MSLDAAQAMSKIPVIGKIVKAITFIEIKEEKDQSSIDVKTPALSGLSNKELENSINEKYLKESQQLYKEFIQSTSKNKKGHLSIYSDYETVTDTPDLLSIRRNIETTQASSYTQSRYITIDKKNDILLTLKSLFKDERYIKVISQNIKEQMKQQMKEDPNKIYWLTDEDAEPFKTILPDQTFYITEDHKLVISFDEYEVAPGYMGVTEFTIPTGVISNLLVGERYIREGHHHHHH,soluble
12,MLEWRGDKYVNGYYPVSSSAPDLLLECISNESKKYLPGELIAVECKWRSTVNFFIPKSDAEKYEKYFRTNKTRYRVKHLFYLFGFGWSDNAPESVYIIPSTALYEYDENTFEITFPNGELIKDKKIRMEDYKMKFKNLIYTVPENRKHLSYQTKSFDTKKKDEPMQR,not soluble
13,MEPEFLYDLLQLPKGVEPPAEEELSKGGKKKYLPPTSRKDPKFEELQKVLMEWINATLLPEHIVVRSLEEDMFDGLILHHLFQRLAALKLEAEDIALTATSQKHKLTVVLEAVNRSLQLEEWQAKWSVESIFNKDLLSTLHLLVALAKRFQPDLSLPTNVQVEVITIESTKSGLKSEKLVEQLTEYSTDKDEPPKDVFDELFKLAPEKVNAVKEAIVNFVNQKLDRLGLSVQNLDTQFADGVILLLLIGQLEGFFLHLKEFYLTPNSPAEMLHNVTLALELLKDEGLLSCPVSPEDIVNKDAKSTLRVLYGLFCKHTQKAHRDRTPHGAPN,soluble
14,MPILQELRLGKRISRDISLADLYQEWIELKILPSSRSEETKKKYLLRKNTIERLFGNKKVTQIRASEYQRIMNKYGQTVGRNFLGRLNTGIHQSIQMAIADKVLIDDFTQHVELFSSKEQQMTLEHHHHHH,not soluble
15,MGSDKIHHHHHHMGRLKTVKLVLLHTSFNLFYQFFYKVFGPKKGRITLATMRSGQLNDNLAALEQGLKTANVKPVTVFCYHYDRTLAGKVGFLLASIKALYVIARADVFVIDDYFFPLYAIHKHDDNQVVQLWHAIGSLKKFGLSLPNADQSVMKPHTNYDWVLINAKSDQPAYLDAMAINQDHVIATGSPMVDSLLNRQPQQPRLAARRILYSPTYRQGVQGKQQVMGYVNNMIAACQQLTGPWELYISLHPYLKLSAMTLPSNVHIFQDAERVKTLMPTIDLFITDYSSLSLTFSYFERPIILYTPDYDDYMQTSGFYVDYYQYLQAPHFSKAARVVDFINQEVDHMDLSYVHELKQKTFPHQDGHNTERVVQFVEKLAGGEH,not soluble
16,MGRRVLLSFLGLGDYEYCYYTYEGKTSTYTRFIQTAVYELFRNDEPMDVVVFATKEAQDRNGQDRKKGDKLLEGIGTAFSRIAPEANVKIVEIESGQDEQANWRLFDRIMDEIKEGDTIYFDITHSFRSIPFVALIVLNYARLVKKADIGAIIYGWFEVLGRPIDVEQMPEEQRVAPIVNLTSMAKLLDWTNGVDQFLRTGDASIIQALTAKENSEVFRNPSLSQAVKDEVKELRELTKRLDQTEKAIRTCRSLQIDEEVQKFHEQLGRVRSASAEAIKPLVPLLDVMEKKYAMFDDDPIMNSWKAVRWCLDHGLIQQALTMLEENAVTAVCRVLGLDLRNEKARGDVHSAIEILLRDIPKEEWRVRSVERVEQIIDFLSPYKGDLKRFSTLKERRNDINHAGARPQPLKAEKFWPDAEQSFRELGAFFERMSALAKSMQTVKGNG,not soluble
17,MVILLPMVTFTMAYLIVDVPKPGDIRTNQVSTILASDGSEIAKIVPPEGNRVDVNLSQVPMHVRQAVIAAEDRNFYSNPGFSFTGFARAVKNNLFGGDLQGGSTITQQYVKNALVGSAQHGWSGLMRKAKELVIATKMSGEWSKDDVLQAYLNIIYFGRGAYGISAASKAYFDKPVEQLTVAEGALLAALIRRPSTLDPAVDPEGAHARWNWVLDGMVETKALSPNDRAAQVFPETVPPDLARAENQTKGPNGLIERQVTRELLELFNIDEQTLNTQGLVVTTTIDPQAQRAAEKAVAKYLDGQDPDMRAAVVSIDPHNGAVRAYYGGDNANGFDFAQAGLQTGSSFKVFALVAALEQGIGLGYQVDSSPLTVDGIKITNVEGEGCGTCNIAEALKMSLNTSYYRLMLKLNGGPQAVADAAHQAGIASSFPGVAHTLSEDGKGGPPNNGIVLGQYQTRVIDMASAYATLAASGIYHPPHFVQKVVSANGQVLFDASTADNTGDQRIPKAVADNVTAAMEPIAGYSRGHNLAGGRDSAAKTGTTQFGDTTANKDAWMVGYTPSLSTAVWVGTVKGDEPLVTASGAAIYGSGLPSDIWKATMDGALKGTSNETFPKPTEVGGYAGVPPPPPPPEVPPSETVIQPTVEIAPGITIPIGPPTTITLAPPPPAPPAATPTPPP,soluble
18,MEHLSQDEVIRLASTPCSAPALKRAFLFSCLTALRKSDIKKLTWEEIQPYGSDGVMYVTTRMQKTKDIVHNPISEEALELIGYSPDKRGKVFPDFKDSMTQAPLKNWLKDAGITKHISYHCSRHSFACLQLDAGTSIAVVQRYLGHKNVATTEVYAKISDAQKRASVGLEHHHHHH,not soluble
19,MAYDGLFTKKMVESLQFLTTGRVHKINQPDNDTILMVVRQNRQNHQLLLSIHPNFSRLQLTTKKYDNPFNPPMFARVFRKHLEGGIIESIKQIGNDRRIEIDIKSKDEIGDTIYRTVILEIMGKHSNLILVDENRKIIEGFKHLTPNTNHYRTVMPGFNYEAPPTQHKINPYDITGAEVLKYIDFNAGNIAKQLLNQFEGFSPLITNEIVSRRQFMTSSTLPEAFDEVMAETKLPPTPIFHKNHETGKEDFYFIKLNQFNDDTVTYDSLNDLLDRFYDARGERERVKQRANDLVRFVQQQLHKYQNKLAKLIEEYEQSKNKDTEQLYGELITANIYRIKQGDKEVTALNYYTNEEVVIPLNPTKSPSANAQYYYKQYNRMKTRERELQHQIQLTKDNIDYFSTIEQQLHHISVHDIDEIRDELAEQGFMKQRKNQTKKKKAQ,not soluble
20,MARKTKEDTQATREGILDAAEACFHEHGVARTTLEMIGARAGYTRGAVYWHFKNKSEVLAAIVERVHLPFMQELERTSTDQRDTPVHDLRAVMIHSFIELSEDERLRKTMEIMLRSDASANTRVLTEMQQAGFRDALDRMERALRRARDLGQLREGADPKIAARMLHATVLGVLHGAMVEPELMDLKRDGMLALDMTLAAYVKDGVFVPGTVPEPLPEA,soluble

# From the DeepSol protein solubility set
